Laboratory results published in PMC4976285.

Biological target: HLA-A*0201 molecules on the surface of T2 cells (human (endogenous in T2) | human)
Assay: flow cytometry on cells

HTNV nucleoprotein peptide FA9 (aa129–aa137, …)
fluorescent index (FI): 2.77
